Consider one molecule from paper PMC10141391, “Structural Analysis of Bacillus subtilis Sigma Factors” (Microorganisms, 2023).

The experiment concerns the target T1, SigE^17–133 (B. subtilis SigE residues 17–133) (B. subtilis, 15N-labelled).
T1 construct: Cloned BamHI/XhoI into pET28-TxrA (His tag, thioredoxin, TEV site)
T1 chain: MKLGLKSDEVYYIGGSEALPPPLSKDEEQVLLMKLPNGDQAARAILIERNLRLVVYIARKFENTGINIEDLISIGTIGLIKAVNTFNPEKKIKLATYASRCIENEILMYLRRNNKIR
Briefly: NMR titration; 1H-15N HSQC chemical shift perturbation; 100 uM 15N-labelled SigE 17-133 alone and with a 2-fold excess of unlabelled CsfB A48E; 298 K, 700 MHz; 50 mM HEPES pH 7.5, 150 mM KCl, 0.5 mM TCEP. Particulars: both partners purified.

B1: CsfB^A48E (natural protein, B. subtilis)
chain: MDETVKLNHTCVICDQEKNRGIHLYTKFICLDCERKVISTSTSDPDYEFYVKKLKSIHTPPLYS
notes: Anti-sigma factor CsfB (Gin), B. subtilis, with the stabilising mutation A48E; In pNIC28 (TEV-cleavable N-terminal His tag); also called CsfB/Gin; Gin; source: E. coli BL21(DE3)pLysS, purified (IMAC, SEC)
As to B1, the binding result was “binds”.
